We go through one molecule from patent US20150132779A1 (TOKYO METROPOLITAN INSTITUTE OF MEDICAL SCIENCE, published 2015).

For this assay, the target named is T1, ubiquitin monomer (S. cerevisiae (yeast lysate), UniProt P0CG63 1-76).
T1 construct: mature; Endogenous monomer of the yeast lysate, seen by western blot in the pull-down experiment; also called monoubiquitin (free, in yeast lysate)
The assay can be described thus: pull-down from yeast lysate with biotinylated TR-TUBE and streptavidin beads, anti-ubiquitin western blot. The method, then: For Ub-ProT assay of yeast extracts, 30 OD₆₀₀ units of log-phase cells were harvested and lysed with glass beads in 300 μl of lysis buffer (50 mM Tris-HCl [pH 7.5], 100 mM NaCl, 10% glycerol, 10 μM MG132, 10 mM iodoacetamide, and 1× complete protease inhibitor cocktail [Roche, EDTA-free]). After centrifugation, the supernatant (100 μg) was incubated with TR-TUBE (10 μg) for 1 h at 4° C. Next, TR-TUBE-bound polyubiquitylated proteins were incubated with Dynabeads MyOne Streptavidin C1 (1 mg, Life Technologies) for 45 min at 4° C. The beads were washed three times with PBS-T, and then incubated in 100 μl of 50 mM AMBC, 0.01% Rapigest SF, and trypsin (1.5 μg) overnight at 37° C. […] After the beads were washed with PBS-T, the polyubiquitin chains were selectively eluted by 30-min incubation with 1× NuPAGE LDS sample buffer. The samples were directly subjected to electrophoresis on NuPAGE gels in order to avoid aggregation of polyubiquitin chains.
The inventors of the present invention next investigated the mean lengths of substrate-attached polyubiquitin chains in yeast lysate. To the knowledge of the inventors of the present invention, the actual chain lengths of polyubiquitylated proteins in vivo have not been previously determined. In this experiment, the inventors of the present invention used a drug-sensitive pdr5 mutant to determine the effect of a proteasome inhibitor, MG132. […]

T1 sequence (P0CG63 1-76 limits assumed): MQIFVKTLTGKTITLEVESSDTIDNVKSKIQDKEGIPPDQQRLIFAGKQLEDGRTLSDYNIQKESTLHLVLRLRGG

B1: trypsin-resistant tandem ubiquitin binding entity (TR-TUBE) (designed binder)
chain: MRGCHHHHHHGMASMTGGQQMGDIGGGGSGGGVNPQLQNPEVAFQQQLEQLSAMGFLNAEANLQALIATGGDINAAIEALLGSQPSGGGGSGGGVNPQLQNPEVAFQQQLEQLSAMGFLNAEANLQALIATGGDINAAIEALLGSQPSGGGGSGGGVNPQLQNPEVAFQQQLEQLSAMGFLNAEANLQALIATGGDINAAIEALLGSQPSGGGGSGGGVNPQLQNPEVAFQQQLEQLSAMGFLNAEANLQALIATGGDINAAIEALLGSQPSGGGGSGGGVNPQLQNPEVAFQQQLEQLSAMGFLNAEANLQALIATGGDINAAIEALLGSQPSGGGGSGGGVNPQLQNPEVAFQQQLEQLSAMGFLNAEANLQALIATGGDINAAIEALLGSQPSGGGGS
modifications: Cys residue upstream of the hexahistidine tag biotinylated with EZ-link Maleimide-PEG2-Biotin
notes: also called 6x TR-TUBE; biotinylated TR-TUBE
As for B1, the binding result is reported as “no binding”.
